US20240376204A1 (JIANGSU HENGRUI PHARMACEUTICALS, published 2024)
Where two headings read alike, the source gives them in different places.

T1: human TIGIT expressed on cells (human, UniProt Q495A1 22-244)
T1 construct: whole, on cells; also called cells overexpressing human TIGIT; CHO-K1 cell strain expressing the human TIGIT gene
T1 sequence (looked up): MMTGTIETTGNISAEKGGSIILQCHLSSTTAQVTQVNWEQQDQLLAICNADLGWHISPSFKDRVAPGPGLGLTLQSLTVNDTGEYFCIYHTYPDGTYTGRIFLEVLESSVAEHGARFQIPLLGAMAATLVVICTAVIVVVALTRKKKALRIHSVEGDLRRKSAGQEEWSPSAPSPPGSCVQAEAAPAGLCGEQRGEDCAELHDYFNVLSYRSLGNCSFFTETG

T2: human TIGIT recombinant protein (human, UniProt Q495A1 22-141)
T2 construct: also called human TIGIT antigen (AcroBiosystem, TIT-H52H3); TIGIT protein
T2 sequence (looked up): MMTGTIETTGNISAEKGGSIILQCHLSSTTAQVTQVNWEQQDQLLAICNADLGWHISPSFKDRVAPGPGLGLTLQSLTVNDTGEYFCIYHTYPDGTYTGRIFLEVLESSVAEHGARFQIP

T3: his-tagged human PVRIG (h-PVRIG-his) recombinant protein (human, UniProt Q6DKI7 41-171, limits assumed)
T3 construct: Acrobiosystems; also called Human PVRIG-his; human PVRIG recombinant protein; not shown: his tag
T3 sequence (looked up): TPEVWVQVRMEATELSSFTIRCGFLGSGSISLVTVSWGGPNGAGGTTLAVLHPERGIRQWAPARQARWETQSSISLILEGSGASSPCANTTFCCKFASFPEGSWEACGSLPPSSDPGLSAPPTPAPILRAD

T4: human PVRIG expressed on cells (human, UniProt Q6DKI7 41-326)
T4 sequence (looked up): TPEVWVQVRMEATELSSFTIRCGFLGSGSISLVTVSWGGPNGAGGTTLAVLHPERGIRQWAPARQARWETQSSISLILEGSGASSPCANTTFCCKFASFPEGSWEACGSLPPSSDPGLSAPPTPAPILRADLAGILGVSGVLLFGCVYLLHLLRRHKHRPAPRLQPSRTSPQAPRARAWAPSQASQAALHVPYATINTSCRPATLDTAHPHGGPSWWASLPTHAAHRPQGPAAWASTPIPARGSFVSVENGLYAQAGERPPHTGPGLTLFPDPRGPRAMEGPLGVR

B1: 1708-151-3 (bispecific antibody, human IgG4 S228P, kappa)
heavy: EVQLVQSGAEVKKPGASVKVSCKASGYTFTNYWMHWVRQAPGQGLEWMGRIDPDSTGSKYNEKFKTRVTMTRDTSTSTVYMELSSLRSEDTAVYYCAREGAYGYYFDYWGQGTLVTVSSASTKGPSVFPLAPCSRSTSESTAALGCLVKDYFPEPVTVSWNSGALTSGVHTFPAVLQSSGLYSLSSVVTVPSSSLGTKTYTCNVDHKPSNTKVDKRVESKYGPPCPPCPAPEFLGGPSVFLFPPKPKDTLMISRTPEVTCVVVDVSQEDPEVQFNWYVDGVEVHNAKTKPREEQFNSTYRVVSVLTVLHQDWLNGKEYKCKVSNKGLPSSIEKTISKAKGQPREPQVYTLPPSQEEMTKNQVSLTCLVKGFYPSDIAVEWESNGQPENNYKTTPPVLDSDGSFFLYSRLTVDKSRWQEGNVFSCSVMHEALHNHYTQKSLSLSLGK
light: HVQLVESGGGSVQAGGSLRLSCVASASGFTYRPYCMAWFRQAPGKEREAVAGIDIFGGTTYADSVKGRFTASRDNAGFSLFLQMNDLKPEDTAMYYCAAGDSPDGRCPPLGQGLNYWGQGTQVTVSSGGGGSGGGGSDIQMTQSPSSLSASVGDRVTITCRASENIYSYLAWYQQKPGKSPKLLIYNARTLAEGVPSRFSGSGSGTDFTLTISSLQPEDFATYYCQYHSGSPLPFGGGTKVEIKRTVAAPSVFIFPPSDEQLKSGTASVVCLLNNFYPREAKVQWKVDNALQSGNSQESVTEQDSKDSTYSLSSTLTLSKADYEKHKVYACEVTHQGLSSPVTKSFNRGEC
notes: Anti-PVRIG/TIGIT
B2: A17h1-1708-151H7-B (trispecific antibody, human IgG4 S228P, kappa)
heavy: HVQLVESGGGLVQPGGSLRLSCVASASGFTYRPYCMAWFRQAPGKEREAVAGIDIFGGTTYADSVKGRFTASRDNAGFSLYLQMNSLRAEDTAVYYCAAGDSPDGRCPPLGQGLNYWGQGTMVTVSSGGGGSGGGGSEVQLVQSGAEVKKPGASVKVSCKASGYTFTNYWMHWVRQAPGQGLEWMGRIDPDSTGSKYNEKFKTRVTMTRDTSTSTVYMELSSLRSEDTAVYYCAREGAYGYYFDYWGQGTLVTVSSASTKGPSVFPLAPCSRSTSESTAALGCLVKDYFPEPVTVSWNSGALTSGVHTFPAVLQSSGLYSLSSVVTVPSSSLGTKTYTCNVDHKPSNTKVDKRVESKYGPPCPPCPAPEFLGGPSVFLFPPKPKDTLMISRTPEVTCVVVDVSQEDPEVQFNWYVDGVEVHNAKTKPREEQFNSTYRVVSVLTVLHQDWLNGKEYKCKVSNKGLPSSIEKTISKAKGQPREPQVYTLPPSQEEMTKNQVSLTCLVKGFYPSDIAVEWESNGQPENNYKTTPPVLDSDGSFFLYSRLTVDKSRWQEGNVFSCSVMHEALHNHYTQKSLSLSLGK
light: EVQLQESGGGLVQPGGSLRLSCTASGLTFSDYSMSWYRQAPGKGRELVAIISGSGVIAHYVDSVKGRFTISRDNSKNTVYLQMRSLTPEDRAVYYCRAVSDWDDYWGQGTQVTVSSGGGGSGGGGSDIQMTQSPSSLSASVGDRVTITCRASENIYSYLAWYQQKPGKSPKLLIYNARTLAEGVPSRFSGSGSGTDFTLTISSLQPEDFATYYCQYHSGSPLPFGGGTKVEIKRTVAAPSVFIFPPSDEQLKSGTASVVCLLNNFYPREAKVQWKVDNALQSGNSQESVTEQDSKDSTYSLSSTLTLSKADYEKHKVYACEVTHQGLSSPVTKSFNRGEC
B3: A17h1-1708-151H7-C (trispecific antibody, human IgG4 S228P, kappa)
heavy: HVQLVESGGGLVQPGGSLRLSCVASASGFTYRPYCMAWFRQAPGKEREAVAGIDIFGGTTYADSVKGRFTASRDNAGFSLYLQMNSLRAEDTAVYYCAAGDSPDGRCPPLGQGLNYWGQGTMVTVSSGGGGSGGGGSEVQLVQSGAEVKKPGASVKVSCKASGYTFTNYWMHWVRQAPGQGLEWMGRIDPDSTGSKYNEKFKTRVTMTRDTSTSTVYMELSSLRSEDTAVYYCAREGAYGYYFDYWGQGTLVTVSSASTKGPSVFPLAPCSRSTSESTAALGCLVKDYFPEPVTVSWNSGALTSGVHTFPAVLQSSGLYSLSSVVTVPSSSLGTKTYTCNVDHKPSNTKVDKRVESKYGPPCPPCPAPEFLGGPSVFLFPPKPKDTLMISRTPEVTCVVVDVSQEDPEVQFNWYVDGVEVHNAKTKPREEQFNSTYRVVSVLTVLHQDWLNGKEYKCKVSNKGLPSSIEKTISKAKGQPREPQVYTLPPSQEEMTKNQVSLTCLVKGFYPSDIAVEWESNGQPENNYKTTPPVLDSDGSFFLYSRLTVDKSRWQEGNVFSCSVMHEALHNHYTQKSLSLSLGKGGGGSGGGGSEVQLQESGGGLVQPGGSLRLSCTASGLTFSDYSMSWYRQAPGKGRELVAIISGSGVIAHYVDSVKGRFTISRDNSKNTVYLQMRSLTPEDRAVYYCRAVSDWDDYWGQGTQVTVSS
light: DIQMTQSPSSLSASVGDRVTITCRASENIYSYLAWYQQKPGKSPKLLIYNARTLAEGVPSRFSGSGSGTDFTLTISSLQPEDFATYYCQYHSGSPLPFGGGTKVEIKRTVAAPSVFIFPPSDEQLKSGTASVVCLLNNFYPREAKVQWKVDNALQSGNSQESVTEQDSKDSTYSLSSTLTLSKADYEKHKVYACEVTHQGLSSPVTKSFNRGEC
notes: Type C
B4: 1708-151-2 (bispecific antibody, human IgG4 S228P, kappa)
heavy: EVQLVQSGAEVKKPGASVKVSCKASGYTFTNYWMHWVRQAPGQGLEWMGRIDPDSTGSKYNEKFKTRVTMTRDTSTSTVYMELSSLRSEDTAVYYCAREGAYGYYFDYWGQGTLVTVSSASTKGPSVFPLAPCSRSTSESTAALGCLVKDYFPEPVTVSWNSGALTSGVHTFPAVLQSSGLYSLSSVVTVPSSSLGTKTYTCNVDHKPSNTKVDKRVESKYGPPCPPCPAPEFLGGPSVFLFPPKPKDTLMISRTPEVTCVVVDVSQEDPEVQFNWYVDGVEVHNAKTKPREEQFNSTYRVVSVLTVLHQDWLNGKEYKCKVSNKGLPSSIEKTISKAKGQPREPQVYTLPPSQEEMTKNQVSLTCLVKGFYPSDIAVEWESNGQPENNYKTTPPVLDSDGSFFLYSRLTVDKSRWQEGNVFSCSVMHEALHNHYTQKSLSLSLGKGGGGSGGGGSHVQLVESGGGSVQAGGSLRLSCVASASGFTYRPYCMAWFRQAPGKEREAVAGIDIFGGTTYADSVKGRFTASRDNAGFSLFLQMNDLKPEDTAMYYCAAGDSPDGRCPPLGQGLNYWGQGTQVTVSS
light: B3 light
notes: Anti-PVRIG/TIGIT
B5: A17h1-1708-151H7-A (trispecific antibody, human IgG4 S228P, kappa)
heavy: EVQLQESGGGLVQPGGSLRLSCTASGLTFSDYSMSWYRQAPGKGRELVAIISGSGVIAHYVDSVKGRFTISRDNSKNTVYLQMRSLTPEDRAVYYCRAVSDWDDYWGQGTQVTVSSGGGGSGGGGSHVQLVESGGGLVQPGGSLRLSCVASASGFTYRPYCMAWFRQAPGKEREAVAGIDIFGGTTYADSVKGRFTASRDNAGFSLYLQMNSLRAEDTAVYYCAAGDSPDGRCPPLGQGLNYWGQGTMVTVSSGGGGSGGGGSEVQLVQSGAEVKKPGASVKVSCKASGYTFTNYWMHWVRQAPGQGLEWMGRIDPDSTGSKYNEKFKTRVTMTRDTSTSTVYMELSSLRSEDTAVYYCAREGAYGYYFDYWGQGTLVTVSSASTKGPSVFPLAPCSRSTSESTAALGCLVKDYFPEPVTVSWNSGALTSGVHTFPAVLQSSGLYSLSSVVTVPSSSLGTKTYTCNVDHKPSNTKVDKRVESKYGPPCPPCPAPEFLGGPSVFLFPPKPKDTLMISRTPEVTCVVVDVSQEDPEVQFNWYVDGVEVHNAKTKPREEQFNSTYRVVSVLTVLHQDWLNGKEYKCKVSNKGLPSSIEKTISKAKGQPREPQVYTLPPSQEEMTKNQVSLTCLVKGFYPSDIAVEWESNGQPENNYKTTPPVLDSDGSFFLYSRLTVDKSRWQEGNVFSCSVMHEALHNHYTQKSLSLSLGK
light: B3 light
B6: 1708-151-1 (bispecific antibody, human IgG4 S228P, kappa)
heavy: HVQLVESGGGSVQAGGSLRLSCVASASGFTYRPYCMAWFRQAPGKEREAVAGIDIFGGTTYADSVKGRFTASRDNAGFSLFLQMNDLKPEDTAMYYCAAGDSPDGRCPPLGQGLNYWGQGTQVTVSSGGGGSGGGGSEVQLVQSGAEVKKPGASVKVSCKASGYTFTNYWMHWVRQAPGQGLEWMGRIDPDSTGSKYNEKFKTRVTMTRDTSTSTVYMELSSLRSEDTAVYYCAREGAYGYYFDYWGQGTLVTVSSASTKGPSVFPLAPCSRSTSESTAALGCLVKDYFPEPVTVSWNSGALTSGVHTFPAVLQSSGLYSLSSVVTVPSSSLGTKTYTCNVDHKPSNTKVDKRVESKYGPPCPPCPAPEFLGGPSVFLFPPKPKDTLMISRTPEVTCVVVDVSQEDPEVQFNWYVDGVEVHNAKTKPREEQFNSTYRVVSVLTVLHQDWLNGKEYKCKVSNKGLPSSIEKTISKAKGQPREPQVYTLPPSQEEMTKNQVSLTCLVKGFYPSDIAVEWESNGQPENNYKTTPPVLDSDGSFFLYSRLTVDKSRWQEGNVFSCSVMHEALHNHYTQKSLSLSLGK
light: B3 light
notes: Anti-PVRIG/TIGIT
B7: 1708-151-4 (bispecific antibody, human IgG4 S228P, kappa)
heavy: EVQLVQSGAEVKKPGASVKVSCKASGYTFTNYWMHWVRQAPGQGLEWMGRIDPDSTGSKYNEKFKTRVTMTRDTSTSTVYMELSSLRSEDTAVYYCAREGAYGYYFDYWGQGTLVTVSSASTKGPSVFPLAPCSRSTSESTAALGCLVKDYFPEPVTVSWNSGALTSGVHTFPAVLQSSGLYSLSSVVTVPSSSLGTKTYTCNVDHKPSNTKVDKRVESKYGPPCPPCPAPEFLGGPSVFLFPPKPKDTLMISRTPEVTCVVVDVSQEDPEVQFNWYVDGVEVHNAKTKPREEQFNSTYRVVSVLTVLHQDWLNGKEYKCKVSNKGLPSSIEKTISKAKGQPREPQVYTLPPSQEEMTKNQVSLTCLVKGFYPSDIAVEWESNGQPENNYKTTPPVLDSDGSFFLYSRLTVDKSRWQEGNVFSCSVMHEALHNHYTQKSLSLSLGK
light: DIQMTQSPSSLSASVGDRVTITCRASENIYSYLAWYQQKPGKSPKLLIYNARTLAEGVPSRFSGSGSGTDFTLTISSLQPEDFATYYCQYHSGSPLPFGGGTKVEIKRTVAAPSVFIFPPSDEQLKSGTASVVCLLNNFYPREAKVQWKVDNALQSGNSQESVTEQDSKDSTYSLSSTLTLSKADYEKHKVYACEVTHQGLSSPVTKSFNRGECGGGGSGGGGSHVQLVESGGGSVQAGGSLRLSCVASASGFTYRPYCMAWFRQAPGKEREAVAGIDIFGGTTYADSVKGRFTASRDNAGFSLFLQMNDLKPEDTAMYYCAAGDSPDGRCPPLGQGLNYWGQGTQVTVSS
notes: Anti-PVRIG/TIGIT
B8: A17h1-1708-151H7-D (trispecific antibody, human IgG4 S228P, kappa)
heavy: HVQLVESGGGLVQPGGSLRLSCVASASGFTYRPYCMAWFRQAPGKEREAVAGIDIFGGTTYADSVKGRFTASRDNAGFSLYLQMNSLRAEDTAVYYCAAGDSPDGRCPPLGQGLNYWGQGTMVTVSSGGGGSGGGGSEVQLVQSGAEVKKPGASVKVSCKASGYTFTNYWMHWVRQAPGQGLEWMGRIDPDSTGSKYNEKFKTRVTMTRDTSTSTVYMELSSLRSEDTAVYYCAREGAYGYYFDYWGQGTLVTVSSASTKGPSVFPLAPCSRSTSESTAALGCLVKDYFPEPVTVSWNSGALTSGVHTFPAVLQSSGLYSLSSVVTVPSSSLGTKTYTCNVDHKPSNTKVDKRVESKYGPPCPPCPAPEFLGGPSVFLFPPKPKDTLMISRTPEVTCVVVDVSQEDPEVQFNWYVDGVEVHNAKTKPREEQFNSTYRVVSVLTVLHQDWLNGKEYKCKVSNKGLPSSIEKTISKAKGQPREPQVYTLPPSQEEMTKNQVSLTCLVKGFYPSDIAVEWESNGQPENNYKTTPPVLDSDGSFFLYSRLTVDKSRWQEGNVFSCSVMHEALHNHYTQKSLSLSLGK
light: DIQMTQSPSSLSASVGDRVTITCRASENIYSYLAWYQQKPGKSPKLLIYNARTLAEGVPSRFSGSGSGTDFTLTISSLQPEDFATYYCQYHSGSPLPFGGGTKVEIKRTVAAPSVFIFPPSDEQLKSGTASVVCLLNNFYPREAKVQWKVDNALQSGNSQESVTEQDSKDSTYSLSSTLTLSKADYEKHKVYACEVTHQGLSSPVTKSFNRGECGGGGSGGGGSEVQLQESGGGLVQPGGSLRLSCTASGLTFSDYSMSWYRQAPGKGRELVAIISGSGVIAHYVDSVKGRFTISRDNSKNTVYLQMRSLTPEDRAVYYCRAVSDWDDYWGQGTQVTVSS
B9: Tab5 (antibody, human IgG4 S228P, kappa, F234A L235A, V domains shown)
VH: EVQLVESGGGVVKPGGSLRLSCAASGFTFGTSSMNWVRQAPGKGLEWVAVISFDGTEIHYADSVKGRFTISRDNSKSTVFLQMNSLRPDDTALYYCAKGSGNIYFYSGMDVWGQGTTVTVSS
VL: DIQMTQSPSTLSASVGDRVTITCRAGQSISGWLAWFQQKPGKAPNLLIYETSTLESGVPSRFSGSGSGTEYTLTISSLQPDDFATYYCQQYYSYPLTFGQGTKVEIKR
notes: Anti-PVRIG positive control, IgG4 S228P/F234A/L235A/K447A; also called positive antibody Tab5; CPA.7.021 variable regions on human IgG4/kappa

Assays:
[1] = biological target: T1, human TIGIT expressed on cells; test: FACS by the method of Example 2-2 with human TIGIT; numbers not given
[2] = biological target: T2, human TIGIT recombinant protein; test: ELISA by the method of Example 2-2 with human TIGIT; numbers not given
[3] = biological target: T5, human PD-1 expressed on cells (human, UniProt Q15116 25-288); test: cell-based or functional assay
T5 sequence (Q15116 25-288 limits assumed): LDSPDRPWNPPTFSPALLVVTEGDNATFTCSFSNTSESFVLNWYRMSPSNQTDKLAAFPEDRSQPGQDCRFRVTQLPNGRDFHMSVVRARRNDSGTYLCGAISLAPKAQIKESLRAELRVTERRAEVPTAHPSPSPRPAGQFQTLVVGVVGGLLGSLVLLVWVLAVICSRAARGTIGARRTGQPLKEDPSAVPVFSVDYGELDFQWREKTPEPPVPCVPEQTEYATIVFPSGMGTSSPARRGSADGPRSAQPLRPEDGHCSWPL

[4] = biological target: T3, his-tagged human PVRIG (h-PVRIG-his) …; test: ELISA, plate coated with PVRIG protein (his tag)
Description: ELISA assays were performed. TIGIT or PVRIG protein (his tag, Acrobiosystems, PVG-H52H4) was dissolved in PBS to 1 μg/mL, and the solution was added to a 96-well plate at 100 μL/well. The plate was coated with the antigen overnight at 4° C. The plate was washed with PBST solution three times. PBST/1% BSA solution was added, and the plate was incubated at 37° C. for 1 h for blocking. After three washes with PBST solution, different concentrations of the trispecific antibodies (diluted with PBST/1% BSA solution) were added, and the plate was incubated at 37° C. for 1.5 h. The plate was washed with PBST solution three times. […] After three washes with PBST solution, TMB solution was added at 100 μL/well. After 5 min of reaction at room temperature, 50 μL of stop solution was added. OD450 values were measured using a microplate reader, and EC₅₀ was calculated.

[5] = biological target: T5, human PD-1 expressed on cells; test: cell-based or functional assay; remark: listed apart in the source
[6] = biological target: T4, human PVRIG expressed on cells; test: cell-based or functional assay
[7] = biological target: T3, his-tagged human PVRIG (h-PVRIG-his) …; test: BLI (Fortebio), antibody on Protein A sensor, his-tagged human PVRIG as analyte
Description: A Protein A biosensor (Fortebio, #18-5010) was immersed in 200 μL of KB buffer (PBS, pH 7.4, 0.02% tween-20, 0.10% BSA) for 60 s as a wetting treatment. Then an anti-PVRIG antibody was diluted to 10 μg/mL with KB buffer, and the sensor was immersed in 200 μL of the solution until the reading was 1.2 nm. The sensor was immersed in KB buffer for 100 s to remove excess antibody. […] The sensor was placed in the solution for 300 seconds of binding and then in KB buffer for 600 seconds of dissociation. Fitting was performed using a dynamic 1:1 binding mode.

[8] = biological target: T4, human PVRIG expressed on cells; test: cell-based or functional assay; remark: listed apart in the source
[9] = biological target: T4, human PVRIG expressed on cells; test: cell-based or functional assay; remark: listed apart in the source

Row | Binder | binding result [1] | binding result [2] | IC50 (read off the curve) [3] [nM] | EC50 [4] [nM] | DC:T MLR result, 0.1 nM antibody (unit not given) [5] | DC:T MLR result, 1 nM antibody (unit not given) [5] | DC:T MLR result, 10 nM antibody (unit not given) [5] | DC:T MLR result, 100 nM antibody (unit not given) [5] | also measured
1 | B1 | binds | binds |  |  |  |  |  |  | 
2 | B2 |  |  | ~0.4 | 0.154 | 108 | 97.8 | 136 | 148 | 
3 | B3 |  |  | ~0.8 | 0.16 | 118 | 136 | 151 | 152 | 
4 | B4 | binds | binds |  |  |  |  |  |  | 
5 | B5 |  |  | ~0.9 | 0.0952 | 91.3 | 121 | 147 | 155 | 
6 | B6 | binds | binds |  |  |  |  |  |  | 
7 | B7 | binds | binds |  |  |  |  |  |  | 
8 | B8 |  |  | ~1 | 0.158 | 84.8 | 97.3 | 137 | 149 | 
9 | B9 |  |  |  |  |  |  |  |  | PVRIG reporter gene cell activity EC50 [6]: 1.38 nM; kon [7]: 737000 M⁻¹ s⁻¹; IFNγ, mixed lymphocyte reaction, 4 nM antibody [8]: 912 pg/mL; IFNγ, mixed lymphocyte reaction, 20 nM antibody [8]: 1420 pg/mL; IFNγ, mixed lymphocyte reaction, 100 nM antibody [8]: 2350 pg/mL; PVRIG reporter gene cell activity EC50 [9]: 0.74 nM
